Km, kcat and kcat/Km data for 2 proteins are collected here from publication PMC2754381.

Substrate in data set [1]: O=C(O)c1cc(=O)[nH]c(=O)n1[C@@H]1O[C@H](COP(=O)(O)O)[C@@H](O)[C@H]1O
Description: purified protein. The data set is classed as biochemical, Saccharomyces cerevisiae. Particulars: 25 °C, pH 7.1, 10 mM MOPS, I = 0.1 (NaCl).

Substrate in data set [2]: O=C(O)c1cc(=O)[nH]c(=O)n1[C@@H]1O[C@H](COP(=O)(O)O)[C@@H](O)[C@H]1O
Description: purified protein. Particulars: 25 °C, pH 7.1, 10 mM MOPS, I = 0.1 (NaCl). It counts as biochemical, Methanothermobacter thermautotrophicus.

B1: ScOMPDC (C155S mutant OMPDC from Saccharomyces cerevisiae) (Saccharomyces cerevisiae S288C; C155S) (protein)
chain: MSKATYKERAATHPSPVAAKLFNIMHEKQTNLCASLDVRTTKELLELVEALGPKICLLKTHVDILTDFSMEGTVKPLKALSAKYNFLLFEDRKFADIGNTVKLQYSAGVYRIAEWADITNAHGVVGPGIVSGLKQAAEEVTKEPRGLLMLAELSSKGSLATGEYTKGTVDIAKSDKDFVIGFIAQRDMGGRDEGYDWLIMTPGVGLDDKGDALGQQYRTVDDVVSTGSDIIIVGRGLFAKGRDAKVEGERYRKAGWEAYLRRCGQQN
Regarding B1, in “purified protein [1]”, the Michaelis-Menten constant (Km) (as a rule, the substrate concentration at which the rate is half of its maximum) came out at 1.4 ± 0.2 µM; the kcat (commonly the number of substrate molecules converted per active site and unit of time at saturation) turned out to be 15 ± 1 s⁻¹; the kcat/Km (usually the turnover number divided by the Michaelis constant) was determined as 1.1e+07 ± 1e+06 M⁻¹ s⁻¹.

B2: MtOMPDC (wildtype OMPDC from Methanothermobacter thermautotrophicus) (Methanothermobacter thermautotrophicus str. Delta H) (protein)
chain: MRSRRVDVMDVMNRLILAMDLMNRDDALRVTGEVREYIDTVKIGYPLVLSEGMDIIAEFRKRFGCRIIADFKVADIPETNEKICRATFKAGADAIIVHGFRGADSVRACLNVAEEMGREVFLLTEMSHPGAEMFIQGAADEIARMGVDLGVKNYVGPSTRPERLSRLREIIGQDSFLISPGVGAQGGDPGETLRFADAIIVGRSIYLADNPAAAAAGIIESIKDLLNP
In the case of B2, in “purified protein [2]”, the Km worked out at 1.5 ± 0.2 µM, the turnover number (kcat) was determined as 4.7 ± 0.3 s⁻¹ and the kcat/Km was 3.1e+06 ± 300000 M⁻¹ s⁻¹.
